# In patent US20100041612A1 (published 2010):
# Ends that are not written are not given here.
# Key:
# [1] = target: hyperactive human GLP-1 receptor variant (human); experiment: cell-based or functional assay
# [2] = target: wild-type human GLP-1 receptor (human, UniProt P43220 24-463); experiment: cell-based or functional assay
binder,measurement,setting,value
HAEGTFTSDVSSYL-NH2 [GLP-1 (7-20) amide],"cAMP production (radioimmunoassay), EC50",[1],24 µM
same,"cAMP production, fold potency increase against the same peptide at the wild type receptor",[1],10 fold
same,"cAMP production (radioimmunoassay), half maximal excitatory concentration (EC50)",[2],240 µM
HAEGTFTSDVSSYL-biphenylalanine (not fully specified) [GLP-1 (7-20) carboxy-terminal tethered with biphenylalanine],"cAMP production (radioimmunoassay), EC50",[1],2 µM
same,"cAMP production, fold higher potency against GLP-1 (7-20) amide -bpa at the hyperactive receptor",[1],10 fold
same,"cAMP production (radioimmunoassay), EC50",[2],11 µM
same,"cAMP production, fold potency increase against GLP-1 (7-20) amide without biphenylalanine",[2],22 fold
